The record followed here is patent publication US6998240B2, “Screen for selective inhibitors or activators of Smad protein function” (Wisconsin Alumni Research Foundation, priority 2001, dated 2006).

Test [1] has as its target phosphorylated Smad2 (His-tagged, full length, from Sf9 cells co-infected with Alk5 T204D virus) (UniProt Q15796). The experiment in a line: HTRF competition, biotin-FAST on Smad2-P, inhibitor at 20 µM. In general terms: In TR-FRET formats the signal depends on donor and acceptor labels being close together.
The target is the same in test [2]. Kind of test: HTRF competition, biotin-FAST on Smad2-P, inhibitor at 50 µM.
Test [3] shares this target. Kind of test: HTRF competition, biotin-FAST on Smad2-P, inhibitor at 40 µM.
Test [4] shares this target. The experiment in a line: HTRF competition against biotinylated FAST peptide.
For another test, the target named is T1, Smad2-P (Homo sapiens, UniProt Q15796).
T1 construct: Smad2; 1–467; pBlueBac; His; made in house; host or cells: Sf9 insect cells (baculovirus), co-infected with virus for membrane-targeted human Alk5 T204D
Kind of test: HTRF assay of biotin-FAST peptide binding to Smad2-P (competition). The following applies: for Average Normalized Counts / Percent of Control (minus Background): Biotin-FAST binding to Smad2-P. From the text: To establish HTRF assays for Smad protein interactions, we have used reagents from Wallac-Perkin Elmer and Packard that include Europium-cryptate coupled to α-His epitope tag antibody, α-GST antibody or Streptavidin. As acceptor fluorophores we have used allophycocyanin (Packard's XL665) coupled to Streptavidin or direct labeling of GST-fusion protein with IC5 (Dojindo). Reagents are mixed in a 50 microliter volume in the wells of a 384 Black non-treated microwell plate (Corning) and HTRF detected in a Wallac Victor V multimode plate reader. The reader detects emission at 615 nm from the Europium chelate donor and at 665 nm from the APC or IC5 acceptor. Background, cross-talk and high FRET wells can be indicated on the plate map to allow the machine to compute a normalized value as a ratio Rn=(ET/D) Dmax where ET=A−BI−(C×D). • A—Fluorescence at 665 nm • BI—Blank (buffer only) at 665 nm • D—Fluorescence at 615 nm • C—Cross-talk correction value calculated from wells containing only donor fluorophore • (from “Quench Correction for LANCE TR-FRET” by Perkin-Elmer Wallace)
Over the past several months we have developed three HTRF assays for Smad binding interactions. All three assays use a Eu-chelate α-His epitope tag antibody as the donor. The antibody recognizes the hexahistidine epitope tag on the Smad proteins produced in the baculovirus expression system described above. As acceptors, we have used Streptavidin conjugated to allophycocyanin (Packard) that binds to biotinylated peptides. The peptides are synthesized to comprise the Smad interaction domain motif from human FAST or c-Jun (FIG. 3). The FAST 24-mer amino acid sequence is based on the homology between FAST, Mixer and Milk reported by Germain and colleagues (Germain, S., et al., supra, 2000). The24-mer C-JUN sequence is based on studies using deletions and gene fragments to define the Smad interaction motif (Zhang, Y., et al., supra, 1998; Liberati, N. T. et al., Proc. Natl. Acad. Sci. USA 96:4844–9, 1999). We also have developed an HTRF assay using IC5-GST-CBP, a fusion protein comprising the Smad interaction domain motif from CBP (a generous gift of Dr. Yigong Shi, Princeton University).
The assays are done in a 50 μl volume in the well of a 384-well plate. The assay buffer, as recommended by Packard for their HTRF reagents is 50 mM K-Hepes pH 7.0, 400 mM KF and 0.1% BSA. The high concentration of KF is recommended for the Eu(K) reagents from Packard. […] We have also optimized through many titrations the amount of Smad protein (220 ng/well, ˜4 pmoles per well of monomer), the concentration of biotinylated peptide (1 uMolar for FAST and C-JUN), the amount of Eu-anti-His tag antibody (36 ng/well) and the amount of Streptactin-APC (0.5 μg/well).
We used the FAST-SmadP HTRF assay described above. […] After 1 hr at room temperature, Streptavidin-APC was added to each well and 30 minutes later the fluorescence emissions at 615 nm and 665 nm were read in a PE-Wallac Victor V.

The target in test [5] is phosphorylated Smad3 (His-tagged, full length) (UniProt P84022). The experiment in a line: HTRF, well D16 Smad3P.
Chain of phosphorylated Smad3 (His-tagged, full length) (P84022 whole entry): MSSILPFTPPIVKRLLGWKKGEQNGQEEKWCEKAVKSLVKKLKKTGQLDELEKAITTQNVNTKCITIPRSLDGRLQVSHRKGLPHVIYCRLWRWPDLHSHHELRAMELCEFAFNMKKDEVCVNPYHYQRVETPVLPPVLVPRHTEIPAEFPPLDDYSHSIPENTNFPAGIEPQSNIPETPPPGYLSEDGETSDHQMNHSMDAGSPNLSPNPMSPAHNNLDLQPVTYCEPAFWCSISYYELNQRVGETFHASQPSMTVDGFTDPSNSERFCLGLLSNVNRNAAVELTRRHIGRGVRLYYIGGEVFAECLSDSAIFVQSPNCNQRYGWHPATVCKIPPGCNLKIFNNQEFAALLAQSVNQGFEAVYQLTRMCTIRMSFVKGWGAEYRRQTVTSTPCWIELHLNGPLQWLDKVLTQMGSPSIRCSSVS
Test [6] concerns the target phosphorylated Smad2 (His-tagged, full length, from Sf9 cells co-infected with Alk5 T204D virus) (UniProt Q15796). Kind of test: HTRF, well D09 Smad2P.
Test [7] has as its target unphosphorylated Smad2 (His-tagged, full length) (UniProt Q15796). Kind of test: HTRF, well D11 Smad2 (No Smad well: 260).
Test [8] shares this target. Kind of test: HTRF, well D13 Smad2.
For test [9], the target named is Smad4 (Strep-tagged, full length) (UniProt Q13485). Kind of test: HTRF, well D19 Smad4.
Chain of Smad4 (Strep-tagged, full length) (Q13485 whole entry): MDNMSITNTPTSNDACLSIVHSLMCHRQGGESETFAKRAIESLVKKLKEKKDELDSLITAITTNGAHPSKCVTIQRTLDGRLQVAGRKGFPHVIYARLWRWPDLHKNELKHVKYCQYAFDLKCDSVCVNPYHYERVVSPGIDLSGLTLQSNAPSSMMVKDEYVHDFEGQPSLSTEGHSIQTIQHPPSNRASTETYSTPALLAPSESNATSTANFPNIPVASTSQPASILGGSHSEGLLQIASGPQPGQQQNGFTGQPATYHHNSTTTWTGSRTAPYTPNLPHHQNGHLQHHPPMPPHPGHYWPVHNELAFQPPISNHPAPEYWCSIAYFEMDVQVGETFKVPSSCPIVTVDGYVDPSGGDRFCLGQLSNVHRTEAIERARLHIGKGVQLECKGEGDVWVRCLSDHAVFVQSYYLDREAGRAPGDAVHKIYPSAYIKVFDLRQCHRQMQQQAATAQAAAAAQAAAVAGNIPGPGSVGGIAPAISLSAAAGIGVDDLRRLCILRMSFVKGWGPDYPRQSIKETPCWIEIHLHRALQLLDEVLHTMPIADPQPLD
Test [10] deals with phosphorylated Smad2 (His-tagged, full length, from Sf9 cells co-infected with Alk5 T204D virus) (UniProt Q15796). Kind of test: HTRF, well D10 Smad2P with unlabelled GST-CBP competitor added after equilibrium.
The target of test [11] is unphosphorylated Smad2 (His-tagged, full length) (UniProt Q15796). Kind of test: HTRF, well D14 Smad2.
The target of test [12] is Smad4 (Strep-tagged, full length) (UniProt Q13485). The experiment in a line: HTRF, well D18 Smad4.
Test [13] has as its target unphosphorylated Smad2 (His-tagged, full length) (UniProt Q15796). Kind of test: HTRF, well D12 Smad2.
Test [14] concerns the target phosphorylated Smad2 (His-tagged, full length, from Sf9 cells co-infected with Alk5 T204D virus) (UniProt Q15796). Kind of test: HTRF, well D05 Smad2P.
The target is the same in test [15]. Kind of test: HTRF, IC5-GST-CBP binding to Smad2-P, no inhibitor.
For test [16], the target named is Smad4 (Strep-tagged, full length) (UniProt Q13485). Kind of test: HTRF, well D20 Smad4.
The target of test [17] is phosphorylated Smad2 (His-tagged, full length, from Sf9 cells co-infected with Alk5 T204D virus) (UniProt Q15796). Kind of test: HTRF, well D06 Smad2P with unlabelled GST-CBP competitor added after equilibrium.
Test [18] addresses Smad4 (Strep-tagged, full length) (UniProt Q13485). The experiment in a line: HTRF, well D17 Smad4.
Test [19] deals with phosphorylated Smad3 (His-tagged, full length) (UniProt P84022). Kind of test: HTRF, well D15 Smad3P.
A further test addresses T2, Smad3-P (Homo sapiens, UniProt P84022).
T2 construct: Smad3; 1–425; pBlueBac; His; made in house; host or cells: Sf9 insect cells (baculovirus), co-infected with virus for human Alk5 T204D
The experiment in a line: HTRF assay of FAST / Jun Smad interaction motif peptide binding to Smad3-P.

The target in test [20] is IC5-labelled GST-CBP fusion protein [GST: P08515]. Kind of test: HTRF, Eu-anti-GST donor plus GST-CBP-IC5 acceptor, well B08.
For test [21] the target is unchanged. Kind of test: HTRF, Eu-anti-GST donor plus GST-CBP-IC5 acceptor, well B07.

No end group written: not given here.

Description for Smad3-P: The HTRF assay for detecting Smad protein interactions was used to quantify binding between the FAST Smad interaction motif and purified Smad 3 (phosphorylated). The indicated amounts of peptide or peptide aptamer were added as competitive inhibitors.
All three assays use a Eu-chelate α-His epitope tag antibody as the donor. The antibody recognizes the hexahistidine epitope tag on the Smad proteins produced in the baculovirus expression system described above. […] The peptides are synthesized to comprise the Smad interaction domain motif from human FAST or c-Jun (FIG. 3).

As for “hFAST-24mer PP>AA peptide (from UniProt O75593 327-350)”, the Average Normalized Counts in test [1] was found to be 1920 counts; in [2], 1860 counts.

In test [1], “cJUN-24mer peptide (unlabelled) (from UniProt P05412 308-331)” gave an Average Normalized Counts of 1980 counts and a Percent of Control (minus Background) of 106%. In test [3], this substance came in with an Average Normalized Counts of 1960 counts and a Percent of Control (minus Background) of 105%.

Take “GST-trx-FAST aptamer with two amino acids deleted from the C-terminus of the FAST SIM (from UniProt O75593 327-348) (designed binder)”: the fold higher IC50 than GST-trx-FAST in test [4] is 10 fold.

In the case of “JUN 24 mer: 24-mer peptide of the Smad interaction motif from c-Jun (LKQKVMNHVNSGCQLMLTQQLQTF)”, the “competition for Biotin-FAST binding to Smad-2P (in words)” value in the test with Smad2-P is given as “inability”. For the same substance, in the test with Smad2-P (20 μM inhibitor peptide), the “Average Normalized Counts” value is given as 1984 and the “Percent of Control (minus Background)” value came to 106%. Further, in the test with Smad2-P (40 μM inhibitor peptide), the “Average Normalized Counts” value is reported as 1964 and the “Percent of Control (minus Background)” value stood at 105%.

In the case of “IC5-labelled GST-CBP fusion protein (from UniProt P08515 1-218)”, the Normalized Counts in [5] stood at 683 counts; in test [6], 617 counts; in test [7] it was 334 counts; in test [8], 311 counts; in test [9], 252 counts; in [10], 353 counts. Besides, the Normalized Counts was 327 counts in test [11]; 206 counts in test [12]; 315 counts in [13]; 593 counts in [14]; 150 counts in test [16]; 322 counts in [17]. For the same substance, the Normalized Counts in [18] turned out to be 149 counts; in [19], 665 counts. The Average Normalized Counts in [15] amounted to 751 counts. The substance also had a Percent of Control (minus Background) in [15] of 100%.

With “C-JUN: biotinylated 24-mer c-Jun Smad interaction motif peptide, HTRF ligand (LKQKVMNHVNSGCQLMLTQQLQTF; also: biotinylated, site not given here)”, the “time for binding reaction to reach equilibrium” value in the test with Smad3-P (1 μM biotinylated peptide) is “about 90 minutes”.

In the case of “Europium-cryptate αGST antibody (Packard)”, the Emission 665 was 9450 counts in test [20] and 5170 counts in test [21]. Also, the Normalized Counts came to 9110 counts in test [20] and 6800 counts in test [21].

The substance “GST-trx-FAST aptamer with two amino acids deleted from the N-terminus of the FAST SIM (from UniProt O75593 329-350) (designed binder)” showed a fold higher IC50 than GST-trx-FAST in test [4] of 10 fold.

Consider “GST-trx: 35 kd GST-trx fusion protein, scaffold without SIM insert [reference compound]”, for which the “effect on binding (in words)” value in the test with Smad2-P (8 μg/50 ul) was “very little effect”. Besides, in the test with Smad3-P, the “competitive inhibition of FAST Smad interaction motif binding to Smad 3 (phosphorylated) (in words)” value is “did not interfere with binding”.

Regarding “hFAST-13mer peptide (from UniProt O75593 331-343)”, in [1], the Average Normalized Counts is 2020 counts and the Percent of Control (minus Background) was 108%. In addition, in test [2], the Average Normalized Counts came to 1980 counts and the Percent of Control (minus Background) was found to be 106%.
